In patent US20250243282A1 one finds % inhibition of CD62L shedding data, which are given here for one substance.

In the assay the target is Recombinant human Gal3 (rhGal3) (TrueBinding, #QC200361) (human) (UniProt P17931). In words: cell-based or functional assay.

Consider “MOPC21-hIgG4 (S228P) isotype control (antibody)”, for which the % inhibition of CD62L shedding was 21.1%.
